The values below are quoted from earlier work in paper PMC5028754.

The series addresses ubiquitin (UniProt P0CG48). Kind of series: NMR. Conditions: cited from earlier work.

Chain of Ddi1 UBA (P40087 386-428): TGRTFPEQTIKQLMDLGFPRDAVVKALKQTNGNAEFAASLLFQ
Chain of Ddi1 UBL (P40087 1-80): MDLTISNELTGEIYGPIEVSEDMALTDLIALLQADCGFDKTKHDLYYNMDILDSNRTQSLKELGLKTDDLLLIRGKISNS

Take Ddi1 UBA (from UniProt P40087): the dissociation constant (Kd) is 150 µM.
Ddi1 UBL (from UniProt P40087): the Kd was 45 µM.

A word on the Kd: it is a measure of binding affinity in units of concentration.
